Experimental data from PMC5726920.

T1: heart isozyme of murine fatty acid binding protein (mouse), P11404
T1 chain: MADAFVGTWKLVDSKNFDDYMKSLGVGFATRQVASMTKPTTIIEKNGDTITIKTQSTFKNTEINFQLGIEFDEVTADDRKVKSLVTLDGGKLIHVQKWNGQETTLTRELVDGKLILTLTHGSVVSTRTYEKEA

T2: protein deglycase DJ-1, Q99497
T2 chain: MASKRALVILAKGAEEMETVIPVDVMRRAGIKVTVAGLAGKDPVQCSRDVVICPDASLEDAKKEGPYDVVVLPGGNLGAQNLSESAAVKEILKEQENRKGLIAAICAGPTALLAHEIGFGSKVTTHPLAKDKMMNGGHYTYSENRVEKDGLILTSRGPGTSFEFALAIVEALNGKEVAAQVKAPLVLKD


Tests used:
[1] = target: T1, heart isozyme of murine fatty acid …; assay: native MS; settings: remark: other sources report otherwise
[2] = target: T2, protein deglycase DJ-1, Q99497; assay: native MS; settings: remark: other sources report otherwise

Row | stoichiometry N [1] | stoichiometry N [2] | Binder
1 | 2 |  | heart isozyme of murine fatty acid binding protein, P11404 1-133 (natural protein) MADAFVGTWKLVDSKNFDDYMKSLGVGFATRQVASMTKPTTIIEKNGDTITIKTQSTFKNTEINFQLGIEFDEVTADDRKVKSLVTLDGGKLIHVQKWNGQETTLTRELVDGKLILTLTHGSVVSTRTYEKEA
2 |  | 2 | protein deglycase DJ-1, Q99497 1-189 (enzyme) MASKRALVILAKGAEEMETVIPVDVMRRAGIKVTVAGLAGKDPVQCSRDVVICPDASLEDAKKEGPYDVVVLPGGNLGAQNLSESAAVKEILKEQENRKGLIAAICAGPTALLAHEIGFGSKVTTHPLAKDKMMNGGHYTYSENRVEKDGLILTSRGPGTSFEFALAIVEALNGKEVAAQVKAPLVLKD
